T1: Mpa (Mycobacterium tuberculosis, UniProt P9WQN5)
T1 chain: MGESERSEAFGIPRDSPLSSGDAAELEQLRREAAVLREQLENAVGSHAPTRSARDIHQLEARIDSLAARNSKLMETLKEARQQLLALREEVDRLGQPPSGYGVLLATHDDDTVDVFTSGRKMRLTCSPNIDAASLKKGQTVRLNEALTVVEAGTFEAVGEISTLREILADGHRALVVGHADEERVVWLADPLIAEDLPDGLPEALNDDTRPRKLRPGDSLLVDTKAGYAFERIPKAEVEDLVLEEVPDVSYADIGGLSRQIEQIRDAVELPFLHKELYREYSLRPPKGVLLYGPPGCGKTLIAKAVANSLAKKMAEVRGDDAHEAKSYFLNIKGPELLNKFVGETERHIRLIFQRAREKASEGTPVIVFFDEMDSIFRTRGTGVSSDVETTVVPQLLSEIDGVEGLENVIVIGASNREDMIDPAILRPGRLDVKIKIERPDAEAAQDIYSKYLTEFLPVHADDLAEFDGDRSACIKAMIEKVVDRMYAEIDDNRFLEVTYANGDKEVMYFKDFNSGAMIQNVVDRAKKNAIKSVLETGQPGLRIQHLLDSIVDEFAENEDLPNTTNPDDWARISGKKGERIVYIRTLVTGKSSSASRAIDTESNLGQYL

B1: Pup (protein)
chain: MAQEQTKRGGGGGDDDDIAGSTAAGQERREKLTEETDDLLDEIDDVLEENAEDFVRAYVQKGGQ

What was measured:
[1] = molecular target: Mpa (Mycobacterium tuberculosis) (UniProt P9WQN5); settings: cited from earlier work
[2] = molecular target: T1, Mpa; experiment: NMR

Molecule | Kd [1] | Kd [2]
Pup (from UniProt P9WHN5) | 3.5 µM | –
B1 | – | ~28 µM

— article PMC7242440 (2020)
